This passage reports Vmax and Km results from ChEMBL document CHEMBL4196070, “Development of Piperazinediones as dual inhibitor for treatment of Alzheimer's disease” (Eur J Med Chem, 2018).

Compound in series [1]: O=C1C(Cc2ccccc2)N(S(=O)(=O)c2ccc(Cl)cc2)C(=O)C(Cc2ccccc2)N1S(=O)(=O)c1ccc(Cl)cc1
Nature of the series: (§1) Competitive inhibition of human MMP2 assessed as Vmax for substrate at 60 nM preincubated for 60 mins followed by Mca-Pro-Leu-Gly-Leu-Dpa-Ala-Arg-NH substrate addition by Lineweaver-Burk plot analysis (reference value: 3.4 to 3.6 nM/min).

Compound in series [2]: O=C1C(c2ccccc2)N(S(=O)(=O)c2ccc(Cl)cc2)C(=O)C(c2ccccc2)N1S(=O)(=O)c1ccc(Cl)cc1
Described as §1.

Compound in series [3]: O=C1C(Cc2ccccc2)N(S(=O)(=O)c2ccc(Cl)cc2)C(=O)C(Cc2ccccc2)N1S(=O)(=O)c1ccc(Cl)cc1
Nature of the series: (§2) Competitive inhibition of human MMP2 assessed as Km for substrate at 100 nM preincubated for 60 mins followed by Mca-Pro-Leu-Gly-Leu-Dpa-Ala-Arg-NH substrate addition by Lineweaver-Burk plot analysis (reference value: 10 to 25 nM).

Compound in series [4]: O=C1C(c2ccccc2)N(S(=O)(=O)c2ccc(Cl)cc2)C(=O)C(c2ccccc2)N1S(=O)(=O)c1ccc(Cl)cc1
Described as §2.

Compound in series [5]: O=C1C(Cc2ccccc2)N(S(=O)(=O)c2ccc(Cl)cc2)C(=O)C(Cc2ccccc2)N1S(=O)(=O)c1ccc(Cl)cc1
Description: (§3) Competitive inhibition of human MMP2 assessed as Vmax for substrate at 100 nM preincubated for 60 mins followed by Mca-Pro-Leu-Gly-Leu-Dpa-Ala-Arg-NH substrate addition by Lineweaver-Burk plot analysis (reference value: 3.4 to 3.6 nM/min).

Compound in series [6]: O=C1C(c2ccccc2)N(S(=O)(=O)c2ccc(Cl)cc2)C(=O)C(c2ccccc2)N1S(=O)(=O)c1ccc(Cl)cc1
The description is as §3.

Compound in series [7]: O=C1C(Cc2ccccc2)N(S(=O)(=O)c2ccc(Cl)cc2)C(=O)C(Cc2ccccc2)N1S(=O)(=O)c1ccc(Cl)cc1
Nature of the series: (§4) Competitive inhibition of human MMP2 assessed as Km for substrate at 60 nM preincubated for 60 mins followed by Mca-Pro-Leu-Gly-Leu-Dpa-Ala-Arg-NH substrate addition by Lineweaver-Burk plot analysis (reference value: 10 to 25 nM).

Compound in series [8]: O=C1C(c2ccccc2)N(S(=O)(=O)c2ccc(Cl)cc2)C(=O)C(c2ccccc2)N1S(=O)(=O)c1ccc(Cl)cc1
Described as §4.

B1: 72 kDa type IV collagenase (Homo sapiens), P08253 (protein)
chain: MEALMARGALTGPLRALCLLGCLLSHAAAAPSPIIKFPGDVAPKTDKELAVQYLNTFYGCPKESCNLFVLKDTLKKMQKFFGLPQTGDLDQNTIETMRKPRCGNPDVANYNFFPRKPKWDKNQITYRIIGYTPDLDPETVDDAFARAFQVWSDVTPLRFSRIHDGEADIMINFGRWEHGDGYPFDGKDGLLAHAFAPGTGVGGDSHFDDDELWTLGEGQVVRVKYGNADGEYCKFPFLFNGKEYNSCTDTGRSDGFLWCSTTYNFEKDGKYGFCPHEALFTMGGNAEGQPCKFPFRFQGTSYDSCTTEGRTDGYRWCGTTEDYDRDKKYGFCPETAMSTVGGNSEGAPCVFPFTFLGNKYESCTSAGRSDGKMWCATTANYDDDRKWGFCPDQGYSLFLVAAHEFGHAMGLEHSQDPGALMAPIYTYTKNFRLSQDDIKGIQELYGASPDIDLGTGPTPTLGPVTPEICKQDIVFDGIAQIRGEIFFFKDRFIWRTVTPRDKPMGPLLVATFWPELPEKIDAVYEAPQEEKAVFFAGNEYWIYSASTLERGYPKPLTSLGLPPDVQRVDAAFNWSKNKKTYIFAGDKFWRYNEVKKKMDPGFPKLIADAWNAIPDNLDAVVDLQGGGHSYFFKGAYYLKLENQSLKSVKFGSIKSDWLGC
Consider B1, for which the Vmax (commonly the rate approached at saturating substrate) in series [1] was 3.6 nM/min; in series [2], 3.4 nM/min; in series [5] it was 3.6 nM/min; in series [6] it was 3.4 nM/min. Also, the Km (usually the concentration of substrate that gives half-maximal velocity) in series [3] stood at 0.048 µM; in series [4] it was 0.07 µM; in series [7], 0.024 µM; in series [8], 0.036 µM.
